According to patent US20060148715A1, “Structural requirements for STAT3 binding and recruitment to phosphotyrosine ligands” (BAYLOR COLLEGE OF MEDICINE, priority 2004, published 2006):
Like-named read-outs stand apart in the source and are kept apart here. Blank lines part the entries; values can stand above or below the molecule they belong to. Non-standard residues stand in square brackets, D forms with d. Residues, ends and D or L forms follow the SMILES beside them. No end group written: not given here. *: point of attachment. d‑Biotin‑LC = N-terminal biotin (d-Biotin-LC), O=C(CCCC[C@@H]1SC[C@@H]2NC(=O)N[C@@H]21)NCCCCCC(=O)*; Biotin = O=C1N[C@H]2[C@H](CS[C@H]2CCCCC(=O)*)N1; pY = N[C@@H](Cc1ccc(OP(=O)(O)O)cc1)C(=O)O; Ahx = NCCCCCC(=O)O

Key:
wild type Stat3 = target: T1, wild type Stat3 (Homo sapiens, UniProt P40763); experiment: Mirror resonance affinity assay (resonant mirror biosensor); type: binding; details: for Kd: wild type Stat3 binding to G-CSFR phosphododecapeptides, ratio kdiss/kass, read-out: KD
T1 construct: made in house; host or cells: Sf9 insect cells (baculovirus, pFastBac1)
T1 sequence (P40763 whole entry): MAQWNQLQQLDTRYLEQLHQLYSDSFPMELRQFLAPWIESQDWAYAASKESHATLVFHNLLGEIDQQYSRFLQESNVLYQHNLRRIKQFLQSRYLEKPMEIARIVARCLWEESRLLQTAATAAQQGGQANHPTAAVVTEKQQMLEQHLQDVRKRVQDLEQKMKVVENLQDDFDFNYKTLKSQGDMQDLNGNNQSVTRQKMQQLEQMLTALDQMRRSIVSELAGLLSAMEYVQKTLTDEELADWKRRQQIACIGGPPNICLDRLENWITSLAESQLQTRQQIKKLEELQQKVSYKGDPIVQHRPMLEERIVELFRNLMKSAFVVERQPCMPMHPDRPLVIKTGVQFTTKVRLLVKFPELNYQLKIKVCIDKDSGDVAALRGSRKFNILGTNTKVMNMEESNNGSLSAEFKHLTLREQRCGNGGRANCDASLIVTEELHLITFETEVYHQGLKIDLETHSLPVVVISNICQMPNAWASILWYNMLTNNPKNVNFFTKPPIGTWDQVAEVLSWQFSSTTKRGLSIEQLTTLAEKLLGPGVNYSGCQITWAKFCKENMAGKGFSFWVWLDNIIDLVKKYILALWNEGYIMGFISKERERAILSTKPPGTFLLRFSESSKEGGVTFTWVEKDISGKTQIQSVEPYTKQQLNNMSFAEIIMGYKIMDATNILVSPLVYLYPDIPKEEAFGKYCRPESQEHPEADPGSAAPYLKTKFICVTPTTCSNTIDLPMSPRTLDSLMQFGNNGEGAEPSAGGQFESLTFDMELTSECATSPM
Protocol: (§1) Kinetics experiments were performed using an lasys Auto+ resonant mirror biosensor (Affinity Sensor, Paramus, N.J.) (see Sadowski et. al, 1986). Briefly, two-welled cuvettes coated on the bottom of each well with biotin were purchased from Affinity Sensor and prepared for immobilization of biotinylated peptides by coating each surface with 0.04 mg/ml NeutrAvidin (Pierce) and washing with PBS-T (20 mM Na Phosphate, 0.05% Tween-20). Biotinylated peptide (5 μg) was added into each well—experimental peptide to one well and control peptide to the other—and change in arc seconds monitored simultaneously in both wells using the biosensor until stable followed by washing with PBS-T. Real-time binding of Stat3 was conducted at 25° C. at a stir speed of 70 for 10 min starting at the lowest concentration of Stat3. The wells were washed out with three changes of 60 μl PBS-T, and dissociation was allowed to proceed for 5 min. Each well bottom was regenerated by washing with […] of 100 mM formic acid for 2 min and equilibrated with PBS-T for the next round of association assay. Data were collected automatically and analyzed with the FASTplot and GraFit software (see Sheinerman et. al, 2003).
(§2) Mirror resonance affinity assay. Two cells of a biotin-coated cuvette pretreated with saturating amounts of NeutrAvidin. One well of the cuvette was pretreated with biotinylated phosphopeptide based on Y1068 (pY1068, left panel), while the other well was pretreated with biotinylated non-phosphorylated peptide Y1068 (Y1068, right panel) as a control for non-specific binding. Wild type or mutated Stat3 protein was added in the concentrations indicated to each of the two cells and mirror resonance measurements recorded continuously for 10 min as shown.
To obtain quantitative kinetic information about the binding of Stat3 to G-CSFR Y704 and Y744 including association rates (kass), disassociation rates (kdiss) and dissociation equilibrium constants (KD), real-time affinity measurements using a mirror resonance biosensor were performed. The biosensor exploits surface plasmon resonance to measure in real time the alteration in the angle of a laser light reflected from a surface upon which binding events are occurring. Biotinylated peptides were immobilized onto the bottom surface of cuvette wells pre-coated with NeutrAvidin. The interaction of peptides with Stat3 added at different concentrations was measured in real time as altered deflection of a laser light striking the bottom surface of the cuvette; the alterations in the deflection angle measured in arc seconds was analyzed with GraFit software. […] The slightly lower KD for Y704 vs. Y744 is attributable to a faster association rate of Stat3 binding to this phosphododecapeptide.

Stat3-3M [1] = target: T2, Stat3-3M (Homo sapiens, UniProt P40763, E638L/Y640F/Y657F); experiment: as above; type: binding; details: Stat3-3M binding to G-CSFR phosphododecapeptides; ratio kdiss/kass; read-out: KD
T2 construct: made in house; host or cells: Sf9 insect cells (baculovirus, pFastBac1)
T2 sequence (P40763 whole entry E638L/Y640F/Y657F): as the sequence (P40763 whole entry) above, with E638L, Y640F, Y657F counted along it
Protocol: as §1, §2

[2] = target: pY1068 phosphododecapeptide (EGFR); experiment: mirror resonance biosensor, biotinylated peptide on NeutrAvidin, Stat3 in solution
[3] = target: pY704 phosphododecapeptide (G-CSFR) (human); experiment: as above
[4] = target: pY744 phosphododecapeptide (G-CSFR) (human); experiment: as above
Stat3-E638P [5] = target: T3, Stat3-E638P (human, UniProt P40763 1-770); experiment: peptide pull-down: biotinylated peptide on NeutrAvidin agarose, purified His-tagged Stat3 protein added, bound protein immunoblotted with Stat3 mAb
T3 construct: Produced in Sf9 cells; CD spectrum essentially identical to wild type
T3 sequence (P40763 other isoform, or with tags, fused parts or gaps E638P E638P limits assumed): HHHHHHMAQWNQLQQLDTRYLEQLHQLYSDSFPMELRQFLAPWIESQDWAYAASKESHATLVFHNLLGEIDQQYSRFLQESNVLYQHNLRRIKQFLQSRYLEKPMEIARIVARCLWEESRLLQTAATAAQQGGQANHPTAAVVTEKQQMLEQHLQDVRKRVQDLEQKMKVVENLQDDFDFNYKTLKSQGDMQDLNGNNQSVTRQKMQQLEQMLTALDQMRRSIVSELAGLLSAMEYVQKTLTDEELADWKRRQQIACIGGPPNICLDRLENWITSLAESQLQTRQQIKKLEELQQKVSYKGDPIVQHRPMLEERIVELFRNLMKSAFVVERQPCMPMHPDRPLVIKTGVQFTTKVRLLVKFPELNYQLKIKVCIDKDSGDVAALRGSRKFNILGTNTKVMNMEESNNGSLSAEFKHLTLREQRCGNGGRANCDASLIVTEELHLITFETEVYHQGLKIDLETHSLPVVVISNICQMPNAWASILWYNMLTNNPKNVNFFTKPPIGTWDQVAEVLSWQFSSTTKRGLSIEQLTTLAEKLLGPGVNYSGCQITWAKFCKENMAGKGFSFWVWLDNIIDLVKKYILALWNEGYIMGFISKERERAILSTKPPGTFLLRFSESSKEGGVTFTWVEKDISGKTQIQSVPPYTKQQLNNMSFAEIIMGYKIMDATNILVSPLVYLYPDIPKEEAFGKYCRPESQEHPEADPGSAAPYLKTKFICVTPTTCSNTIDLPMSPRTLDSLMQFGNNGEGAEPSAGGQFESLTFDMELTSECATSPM

Stat3-3M [6] = target: T4, Stat3-3M (human, UniProt P40763 1-770, limits assumed); experiment: as above
T4 sequence (P40763 other isoform, or with tags, fused parts or gaps limits assumed): as the sequence (P40763 other isoform, or with tags, fused parts or gaps E638P E638P limits assumed) above, with P644L, Y646F, Y663F counted along it

[7] = target: T5, wild type Stat3 (recombinant human Stat3alpha with N-terminal 6-histidine tag) (human, UniProt P40763 1-770); experiment: as above
T5 construct: Expressed in Sf9 cells and purified on Ni-NTA for peptide assays; expressed from pcDNA3.1 in 293T cells for the G-CSFR co-immunoprecipitation; also called WT; purified Stat3
T5 sequence (P40763 other isoform, or with tags, fused parts or gaps limits assumed): as the sequence (P40763 other isoform, or with tags, fused parts or gaps E638P E638P limits assumed) above, with P644E counted along it

Stat3-E638P [8] = target: T3, Stat3-E638P; experiment: as above; remark: listed apart in the source
[9] = target: T5, wild type Stat3 (recombinant human …); experiment: as above; remark: listed apart in the source
Stat3-E638P [10] = target: T3, Stat3-E638P; experiment: mirror resonance biosensor: biotinylated peptide on NeutrAvidin-coated cuvette, Stat3 protein in solution, association followed for about 10 min
Protocol: as §1, with “Biotinylated peptide (5 μg) was added into each well—experimental peptide to one well and control peptide to the other—and change in arc seconds monitored simultaneously in both wells using the biosensor until stable followed by washing with PBS-T. Real-time binding of Stat3 was conducted at 25° C. at a stir speed of 70 for 10 min starting at the lowest concentration of Stat3.” left out
as §2, with “binding.” for “binding. Wild type or mutated Stat3 protein was added in the concentrations indicated to each of the two cells and mirror resonance measurements recorded continuously for 10 min as shown.”

[11] = target: T5, wild type Stat3 (recombinant human …); experiment: as above
Protocol: as §1, with “Biotinylated peptide (5 μg) was added into each well—experimental peptide to one well and control peptide to the other—and change in arc seconds monitored simultaneously in both wells using the biosensor until stable followed by washing with PBS-T. Real-time binding of Stat3 was conducted at 25° C. at a stir speed of 70 for 10 min starting at the lowest concentration of Stat3.” left out
as §2, with “binding.” for “binding. Wild type or mutated Stat3 protein was added in the concentrations indicated to each of the two cells and mirror resonance measurements recorded continuously for 10 min as shown.”

Stat3-6M = Stat3-6M (human, UniProt P40763 1-770, limits assumed); experiment: peptide pull-down: biotinylated peptide on NeutrAvidin agarose, purified His-tagged Stat3 protein added, bound protein immunoblotted with Stat3 mAb
Chain of Stat3-6M (P40763 other isoform, or with tags, fused parts or gaps limits assumed): as the sequence (P40763 other isoform, or with tags, fused parts or gaps E638P E638P limits assumed) above, with P644L, Y646F, Y663F, C693A, S697A, Q698L counted along it

Stat3-3M [12] = target: T4, Stat3-3M; experiment: as above; remark: listed apart in the source
Stat3-4M = Stat3-4M (human, UniProt P40763 1-770, limits assumed); experiment: as above
Chain of Stat3-4M (P40763 other isoform, or with tags, fused parts or gaps limits assumed): as the sequence (P40763 other isoform, or with tags, fused parts or gaps E638P E638P limits assumed) above, with P644E, Y663F, C693A, S697A, Q698L counted along it

[13] = target: T5, wild type Stat3 (recombinant human …); experiment: as above; remark: listed apart in the source

Molecule: LPVPE(pY)INRSVP (LPVPE[pY]INRSVP) [Y1068 Q-to-R PDP]
Stat3 binding in real-time resonance mirror affinity assay (wild type Stat3; wild type Stat3): undetectable

Molecule: CC(C)C[C@H](NC(=O)[C@@H](NC(=O)[C@H](Cc1ccc(OP(=O)(O)O)cc1)NC(=O)[C@@H](NC(=O)[C@H](CCC(N)=O)NC(=O)[C@@H](NC(=O)[C@H](CC(C)C)NC(=O)[C@@H](NC(=O)CCCCCNC(=O)CCCC[C@@H]1SC[C@@H]2NC(=O)N[C@@H]21)[C@@H](C)O)C(C)C)[C@@H](C)O)C(C)C)C(=O)N[C@@H](CCC(N)=O)C(=O)NCC(=O)N[C@@H](CC(=O)O)C(=O)N1CCC[C@H]1C(=O)O [compound 704, TLVQTpYVLQGDP] ({Biotin-Ahx}-TLVQT[pY]VLQGDP-OH)
Kd (Stat3-3M [1]): 1210 nM
Kd (wild type Stat3): 703 nM

Molecule: wild type Stat3 (recombinant human Stat3alpha with N-terminal 6-histidine tag) (from UniProt P40763 1-770)
Kd [2]: 223 nM
Kd [3]: 703 nM
Kd [4]: 950 nM

Molecule: CC(C)C[C@H](NC(=O)[C@H](Cc1ccc(OP(=O)(O)O)cc1)NC(=O)[C@H](Cc1c[nH]cn1)NC(=O)CNC(=O)[C@@H]1CCCN1C(=O)CNC(=O)[C@@H]1CCCN1C(=O)CCCCCNC(=O)CCCC[C@@H]1SC[C@@H]2NC(=O)N[C@@H]21)C(=O)N[C@@H](CCCNC(=N)N)C(=O)N[C@@H](CS)C(=O)N[C@@H](CC(=O)O)C(=O)N[C@@H](CO)C(=O)N[C@H](C(=O)O)[C@@H](C)O [compound 744, PGPGHpYLRCDST] ({Biotin-Ahx}-PGPGH[pY]LRCDST-OH)
Kd (Stat3-3M [1]): 1060 ± 150 nM
Kd (wild type Stat3): 950 nM

Molecule: {d‑Biotin‑LC}-TLVQTYVLQGDP [Y704 non-phosphorylated dodecapeptide (G-CSFR)]
binding result (Stat3-E638P [5]): no binding
binding result (Stat3-3M [6]): no binding
binding result [7]: no binding

B1: pY992 (peptide)
peptide: {d‑Biotin‑LC}-TDSNF[pY]RALMDE
notes: EGFR-based control phosphopeptide; also called pY992 phosphododecapeptide (EGFR)
binding result (Stat3-E638P [8]): no binding

Molecule: {d‑Biotin‑LC}-PSPLS[pY]ENLTFQ [pY764 phosphododecapeptide (G-CSFR)]
binding result (Stat3-E638P [5]): no binding
binding result [7]: no binding

Molecule: {d‑Biotin‑LC}-LPVPE[pY]INLSVP [pY1068-L phosphododecapeptide (EGFR Y1068, +3 Q to L)]
binding result [9]: no binding
binding result (Stat3-E638P [8]): no binding

B2: Y1068 non-phosphorylated dodecapeptide (EGFR) (peptide)
peptide: {d‑Biotin‑LC}-LPVPEYINQSVP
notes: also called unphosphorylated Y1068 dodecapeptide
binding result (Stat3-E638P [10]): no binding (tested: 600 nM)
binding result [11]: no binding
binding result (Stat3-6M): no binding
binding result (Stat3-3M [12]): no binding
binding result (Stat3-4M): no binding

B3: pY1173 (peptide)
peptide: {d‑Biotin‑LC}-LDNPD[pY]QQDFFP
notes: EGFR-based phosphopeptide; also called pY1173 phosphododecapeptide (EGFR)
binding result (Stat3-E638P [8]): no binding

Molecule: {d‑Biotin‑LC}-SDQVL[pY]GQLLGS [pY729 phosphododecapeptide (G-CSFR)]
binding result (Stat3-E638P [5]): no binding
binding result [7]: no binding

Molecule: {d‑Biotin‑LC}-LPVPE[pY]INMSVP [pY1068-M phosphododecapeptide (EGFR Y1068, +3 Q to M)]
binding result [9]: no binding
binding result (Stat3-E638P [8]): no binding

B6: pY1148 (peptide)
peptide: {d‑Biotin‑LC}-VGNPE[pY]LNTVQP
notes: EGFR-based phosphopeptide; also called pY1148 phosphododecapeptide (EGFR)
binding result (Stat3-E638P [8]): no binding

Continued, values first:

binding result (Stat3-E638P [5]): no binding
Molecule: {d‑Biotin‑LC}-TLVQT[pY]VLQGDP [pY704 phosphododecapeptide (G-CSFR)]

binding result (Stat3-E638P [10]): no binding (tested: 600 nM)
B4: pY1068 phosphododecapeptide (EGFR) (peptide)
peptide: LPVPEXINQSVP
modifications: phosphotyrosine at position 6 (EGFR Y1068); N-terminal biotin (d-Biotin-LC)
notes: also called Y1068 PDP; Y1068 phosphopeptide

binding result (Stat3-E638P [8]): no binding
B5: pY1086 phosphododecapeptide (EGFR) (peptide)
peptide: {d‑Biotin‑LC}-VQNPV[pY]HNQPLN
notes: also called Y1086 PDP; Y1086 phosphopeptide

binding result (Stat3-E638P [5]): no binding
Molecule: {d‑Biotin‑LC}-PGPGH[pY]LRCDST [pY744 phosphododecapeptide (G-CSFR)]

binding result [9]: no binding
binding result (Stat3-E638P [8]): no binding
Molecule: {d‑Biotin‑LC}-LPVPE[pY]INESVP [pY1068-E phosphododecapeptide (EGFR Y1068, +3 Q to E)]

binding result (Stat3-6M): no binding
binding result (Stat3-3M [12]): no binding
binding result (Stat3-4M): no binding
binding result [13]: no binding
binding result (Stat3-E638P [8]): no binding
Molecule: {d‑Biotin‑LC}-VQNPVYHNQPLN [Y1086 non-phosphorylated dodecapeptide (EGFR)]

binding result [9]: no binding
binding result (Stat3-E638P [8]): no binding
Molecule: {d‑Biotin‑LC}-LPVPE[pY]INRSVP (also called Y1068 Q-to-R PDP) [pY1068-R phosphododecapeptide (EGFR Y1068, +3 Q to R)]
